Test results published in US6887705B1, “Tyrosine phosphorylated cleavage furrow-associated proteins (PSTPIPs)” (Genentech, Inc., priority 1997, dated 2005).
Entries after “also recorded” stand apart in the source; their conditions may differ.

Target: T1, PTP HSCF (Mus musculus, UniProt Q61152)
T1 construct: the PST (and C-terminal homolog) of PTP HSCF (amino acids 304-453); made in house; host or cells: E. coli DH5-alpha
T1 sequence (Q61152 304-453): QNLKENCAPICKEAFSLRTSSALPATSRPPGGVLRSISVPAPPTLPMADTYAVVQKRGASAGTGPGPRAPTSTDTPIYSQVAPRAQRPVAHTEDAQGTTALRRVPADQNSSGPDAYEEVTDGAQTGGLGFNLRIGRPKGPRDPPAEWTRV
Assay: In vitro GST pull-down binding of PST PIP forms to PTP HSCF

B1: GST-PSTPIP (GST fusion of full-length PSTPIP, amino acids 2-415) (other)
chain: MAQLQFRDAFWCRDFTAHTGYEVLLQRLLDGRKMCKDVEELLRQRAQAEERYGKELVQIARKAGGQTEMNSLRTSFDSLKQQTENVGSAHIQLALALREELRSLEEFRERQKEQRKKYEAIMDRVQKSKLSLYKKTMESKKAYDQKCRDADDAEQAFERVSANGHQKQVEKSQNKAKQCKESATEAERVYRQNIEQLERARTEWEQEHRTTCEAFQLQEFDRLTILRNALWVHCNQLSMQCVKDDELYEEVRLTLEGCDVEGDINGFIQSKSTGREPPAPVPYQNYYDREVTPLIGSPSIQPSCGVIKRFSGLLHGSPKTTPSAPAASTETLTPTPERNELVYASIEVQATQGNLNSSAQDYRALYDYTAQNSDELDISAGDILAVILEGEDGWWTVERNGQRGFVPGSYLEKL
notes: Made in DH5-alpha bacteria from pGEX4T-2; also called GST-full-length PSTPIP; GST PTP PIP; not shown: glutathione S-transferase encoded by pGEX-4T-2 (Pharmacia)
**Q.** With B1 as the molecule, how does the “precipitation of in vitro translated PTP HSCF by GST fusions of PSTPIP or its domains” value (~1 microgram per ml GST fusion protein) read?
**A.** high degree of specificity

B2: W232A mutant of PST PIP, C-terminal FLAG (other)
chain: MMAQLQFRDAFWCRDFTAHTGYEVLLQRLLDGRKMCKDVEELLRQRAQAEERYGKELVQIARKAGGQTEMNSLRTSFDSLKQQTENVGSAHIQLALALREELRSLEEFRERQKEQRKKYEAIMDRVQKSKLSLYKKTMESKKAYDQKCRDADDAEQAFERVSANGHQKQVEKSQNKAKQCKESATEAERVYRQNIEQLERARTEWEQEHRTTCEAFQLQEFDRLTILRNALAVHCNQLSMQCVKDDELYEEVRLTLEGCDVEGDINGFIQSKSTGREPPAPVPYQNYYDREVTPLIGSPSIQPSCGVIKRFSGLLHGSPKTTPSAPAASTETLTPTPERNELVYASIEVQATQGNLNSSAQDYRALYDYTAQNSDELDISAGDILAVILEGEDGWWTVERNGQRGFVPGSYLEKLDYKDDDDK
notes: In vitro translated or expressed in COS cells; also called W232A PST PIP; PST PIP with an alanine replacement mutation at tryptophan232
**Q.** For B2, which “binding of in vitro translated PST PIP forms to GST fusion of C-terminal 149 amino acids of PTP HSCF” value is on record?
**A.** complete loss of binding; also recorded: abolishes the interaction

B3: PSTPIP: murine PST Phosphatase Interacting Protein, 415 residues (SEQ ID NO:1) (protein)
chain: MMAQLQFRDAFWCRDFTAHTGYEVLLQRLLDGRKMCKDVEELLRQRAQAEERYGKELVQIARKAGGQTEMNSLRTSFDSLKQQTENVGSAHIQLALALREELRSLEEFRERQKEQRKKYEAIMDRVQKSKLSLYKKTMESKKAYDQKCRDADDAEQAFERVSANGHQKQVEKSQNKAKQCKESATEAERVYRQNIEQLERARTEWEQEHRTTCEAFQLQEFDRLTILRNALWVHCNQLSMQCVKDDELYEEVRLTLEGCDVEGDINGFIQSKSTGREPPAPVPYQNYYDREVTPLIGSPSIQPSCGVIKRFSGLLHGSPKTTPSAPAASTETLTPTPERNELVYASIEVQATQGNLNSSAQDYRALYDYTAQNSDELDISAGDILAVILEGEDGWWTVERNGQRGFVPGSYLEKL
modifications: Mus Musculus
**Q.** How did the “binding of in vitro translated PST PIP forms to GST fusion of C-terminal 149 amino acids of PTP HSCF” value turn out when B3 was run?
**A.** capable of interacting
